Earlier results, collected in patent US9700485B2, “Delamination resistant pharmaceutical glass containers containing active pharmaceutical ingredients” (Corning Incorporated, priority 2013, dated 2017).
Where two headings read alike, the source gives them in different places.

What was measured:
[1] = in use test, 10 samples, cited from earlier work
[2] = shaking test, 5 samples, cited from earlier work
HT-29 cells = conditions: cited from earlier work
human IL-17 [3] = molecular target: T1, human IL-17 (Homo sapiens, UniProt Q16552); conditions: cited from earlier work; for Kd: read-out: KD or binding affinity
T1 sequence (Q16552 24-155): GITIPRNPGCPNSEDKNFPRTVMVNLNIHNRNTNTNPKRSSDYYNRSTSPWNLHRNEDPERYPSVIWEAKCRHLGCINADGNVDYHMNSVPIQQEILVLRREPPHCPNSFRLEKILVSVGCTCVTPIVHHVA

EGFR [4] = molecular target: T2, EGFR (Homo sapiens, UniProt P00533); conditions: cited from earlier work
EGFR-AP fusion protein = conditions: cited from earlier work; for Koff / Kon: BIAcore, immobilized EGFR-AP fusion protein
EGFR on HT29 cells = molecular target: T3, EGFR on HT29 cells (Homo sapiens, UniProt P00533); conditions: 10 to 100 nM; cited from earlier work
T3 construct: HT29 cells were seeded at 2×10^4 cells per well; endogenous in cells; host or cells: HT29

MAP kinases p44/p42 = conditions: A431, BxPC3 and HT-29 cells; EGF stimulation; cited from earlier work
DiFi cells [5] = conditions: 72 hours; cited from earlier work
DiFi cells [6] = conditions: cited from earlier work
A431 cells = conditions: cited from earlier work; for tumor growth: three times per week
BxPC-3 cells = conditions: 1.0 mg/mouse/injection; out of 8 mice; cited from earlier work
A431 and BxPC3 xenograft = A431 and BxPC3 xenograft sections; cited from earlier work
EGFR [7] = molecular target: T2, EGFR; design: endogenous in cells; host or cells: A431; inhibition of EGFR phosphorylation: dose or concentration left out as unconfirmed; conditions: cited from earlier work
EGFR [8] = molecular target: T2, EGFR; design: phosphorylation assay, was carried out using BxPC3 or A431 cells; endogenous in cells; host or cells: BxPC3 or A431; conditions: BxPC3 and A431 cells; vs control antibody; cited from earlier work
[9] = −20° C. up to 16 days; DOE; cited from earlier work
[10] = 40° C. up to 14 days; DOE; cited from earlier work
[11] = 300 RPM, room temperature, 72 hours; cited from earlier work
[12] = cited from earlier work
[13] = lyophilized, 4° C., 40° C. and 50° C. up to 4 months; cited from earlier work
[14] = pre and post lyophilized, 0.1 mg/mL; cited from earlier work
[15] = cited from earlier work; for particulate counts =10 μm/mL / particulate counts =25 μm/mL / particulate counts =50 μm/mL: HIAC
human IL-17 [16] = molecular target: T1, human IL-17; conditions: as characterized in the description, cited from earlier work
hTNFSF13b = molecular target: T4, hTNFSF13b (Homo sapiens, UniProt Q9Y275); conditions: as characterized in the description (e.g.); cited from earlier work
T4 construct: purchased Research Diagnostics, Inc., Flanders, N.J
T4 sequence (Q9Y275 134-285 limits assumed): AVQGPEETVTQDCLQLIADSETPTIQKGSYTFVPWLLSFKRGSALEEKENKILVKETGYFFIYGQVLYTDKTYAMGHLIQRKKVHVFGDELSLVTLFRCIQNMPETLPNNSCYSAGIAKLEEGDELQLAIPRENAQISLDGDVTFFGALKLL

[17] = After Lyophilization, reconstituted to 5 mg/mL
[18] = Before Lyophilization, diluted to 5 mg/mL

21^A-Gly-30^Ba-L-Arg-30^B-L-Arg human insulin [Insulin glargine]
Number of vials with particle formation after 7 days ([1]; storage for 1 month at 37° C.): 0
Number of vials with particle formation after 14 days ([1]; storage for 1 month at 37° C.): 10
Number of vials with particle formation after 21 days ([1]; storage for 1 month at 37° C.): 10
Number of vials with particle formation after 28 days ([1]; storage for 1 month at 37° C.): 10
Number of vials with particle formation after 7 days ([1]; storage for 3 months at 5° C.): 7
Number of vials with particle formation after 14 days ([1]; storage for 3 months at 5° C.): 10
Number of vials with particle formation after 21 days ([1]; storage for 3 months at 5° C.): 10
Number of vials with particle formation after 28 days ([1]; storage for 3 months at 5° C.): 10
Number of vials with particle formation after 7 days ([1]; storage for 3 months at 25° C.): 9
Number of vials with particle formation after 14 days ([1]; storage for 3 months at 25° C.): 10
Number of vials with particle formation after 21 days ([1]; storage for 3 months at 25° C.): 10
Number of vials with particle formation after 28 days ([1]; storage for 3 months at 25° C.): 10
Number of vials with particle formation after 7 days ([1]; storage for 3 months at 37° C.): 5
Number of vials with particle formation after 14 days ([1]; storage for 3 months at 37° C.): 9
Number of vials with particle formation after 21 days ([1]; storage for 3 months at 37° C.): 10
Number of vials with particle formation after 28 days ([1]; storage for 3 months at 37° C.): 10
Number of vials with particle formation after 7 days ([1]; storage for 6 months at 5° C.): 7
Number of vials with particle formation after 14 days ([1]; storage for 6 months at 5° C.): 10
Number of vials with particle formation after 21 days ([1]; storage for 6 months at 5° C.): 10
Number of vials with particle formation after 28 days ([1]; storage for 6 months at 5° C.): 10
Number of vials with particle formation after 7 days ([1]; storage for 6 months at 25° C.): 10
Number of vials with particle formation after 14 days ([1]; storage for 6 months at 25° C.): 10
Number of vials with particle formation after 21 days ([1]; storage for 6 months at 25° C.): 10
Number of vials with particle formation after 28 days ([1]; storage for 6 months at 25° C.): 10
Number of vials with particle formation after 7 days ([1]; storage for 6 months at 37° C.): 10
Number of vials with particle formation after 14 days ([1]; storage for 6 months at 37° C.): 10
Number of vials with particle formation after 21 days ([1]; storage for 6 months at 37° C.): 10
Number of vials with particle formation after 28 days ([1]; storage for 6 months at 37° C.): 10
Number of Vials >15 FNU, 0 days ([2]; storage for 1 month at 5° C.): 0
Number of Vials >15 FNU, 0.5 days ([2]; storage for 1 month at 5° C.): 0
Number of Vials >15 FNU, 1 day ([2]; storage for 1 month at 5° C.): 0
Number of Vials >15 FNU, 2 days ([2]; storage for 1 month at 5° C.): 2
Number of Vials >15 FNU, 3 days ([2]; storage for 1 month at 5° C.): 3
Number of Vials >15 FNU, 4 days ([2]; storage for 1 month at 5° C.): 3
Number of Vials >15 FNU, 6 days ([2]; storage for 1 month at 5° C.): 4
Number of Vials >15 FNU, 8 days ([2]; storage for 1 month at 5° C.): 4
Number of Vials >15 FNU, 10 days ([2]; storage for 1 month at 5° C.): 4
Number of Vials >15 FNU, 0 days ([2]; storage for 1 month at 25° C.): 0
Number of Vials >15 FNU, 0.5 days ([2]; storage for 1 month at 25° C.): 0
Number of Vials >15 FNU, 1 day ([2]; storage for 1 month at 25° C.): 0
Number of Vials >15 FNU, 2 days ([2]; storage for 1 month at 25° C.): 1
Number of Vials >15 FNU, 3 days ([2]; storage for 1 month at 25° C.): 1
Number of Vials >15 FNU, 4 days ([2]; storage for 1 month at 25° C.): 1
Number of Vials >15 FNU, 6 days ([2]; storage for 1 month at 25° C.): 1
Number of Vials >15 FNU, 8 days ([2]; storage for 1 month at 25° C.): 2
Number of Vials >15 FNU, 10 days ([2]; storage for 1 month at 25° C.): 3
Number of Vials >15 FNU, 0 days ([2]; storage for 1 month at 37° C.): 0
Number of Vials >15 FNU, 0.5 days ([2]; storage for 1 month at 37° C.): 0
Number of Vials >15 FNU, 1 day ([2]; storage for 1 month at 37° C.): 0
Number of Vials >15 FNU, 2 days ([2]; storage for 1 month at 37° C.): 2
Number of Vials >15 FNU, 3 days ([2]; storage for 1 month at 37° C.): 5
Number of Vials >15 FNU, 4 days ([2]; storage for 1 month at 37° C.): 5
Number of Vials >15 FNU, 6 days ([2]; storage for 1 month at 37° C.): 5
Number of Vials >15 FNU, 8 days ([2]; storage for 1 month at 37° C.): 5
Number of Vials >15 FNU, 10 days ([2]; storage for 1 month at 37° C.): 5

Human IL-17: recombinant human IL-17 (R&D Systems)
AVG GROα (HT-29 cells; Human IL-17 0.10 ng/mL): 205.8 pg/mL
AVG GROα (HT-29 cells; Human IL-17 12.00 ng/mL): 960.0 pg/mL
AVG GROα (pg/mL) (HT-29 cells; Human IL-17 60.00 ng/mL): 1,556.0 pg/mL
AVG GROα (pg/mL) (HT-29 cells; Human IL-17 300.00 ng/mL): 2,047.5 pg/mL
AVG GROα (pg/mL) (HT-29 cells; Human IL-17 1500.00 ng/mL): 2,420.4 pg/mL

IL-17 receptor Fc-fusion protein: IL-17 receptor Fc-fusion protein (R&D #177-IR)
fast off-rate (human IL-17 [3]; Bivalent analyte model, 25° C.): 20.3 s⁻¹
on-rate (human IL-17 [3]; Bivalent analyte model, 25° C.): 106000 M⁻¹ s⁻¹
slow off-rate (human IL-17 [3]; Bivalent analyte model, 25° C.): 0.000163 s⁻¹
Kd (human IL-17 [3]; from fast off-rate): 190000 nM
Kd (human IL-17 [3]; from slow off-rate): 1.5 nM

IMC-11F8: fully human monoclonal antibody (IgG1) that binds to human EGFR
binding to EGFR (ELISA) (EGFR [4]): comparable binding to EGFR
Koff (EGFR-AP fusion protein; Format Fab): 36.7 ± 8.5 10^−4s^−1
Kon (EGFR-AP fusion protein; Format Fab): 22.9 ± 9.9 10^5 M^−1s^−1
Kd (EGFR-AP fusion protein; Format Fab, calculated as koff/kon): 1.78 ± 0.5 nM
Koff (EGFR-AP fusion protein; Format IgG): 5.8 ± 2.2 10^−4s^−1
Kon (EGFR-AP fusion protein; Format IgG): 18.6 ± 7.7 10^5 M^−1s^−1
inhibition of ^125I-EGF binding (EGFR on HT29 cells): as efficient as IMC-C225 in inhibiting ^125I-EGF binding to EGFR on HT29 cells
p44/42 MAP kinases phosphorylation (MAP kinases p44/p42): blocked p44/42 MAP kinases phosphorylation following EGF stimulation in A431, BxPC3 and HT-29 cells in a dose-dependent manner
inhibition of cell proliferation (MTT) (DiFi cells [5]): as potent an inhibitor of cell proliferation as IMC-C225
ADCC activity (DiFi cells [6]): mediate cell death via activation of the Antibody Dependent Cellular Cytotoxicity
tumor growth (A431 cells; 0.3 mg dose i.p.): progression of tumor growth is retarded
tumor growth (A431 cells; 1 mg dose i.p.): as effective as IMC-C225 (CETUXIMAB) in suppressing or inhibiting tumor growth as compared to control animals
tumor regressions (A431 cells; 1.0 mg/mouse/injection, out of 8 animals): 6
tumor regression (BxPC-3 cells): 5
Ki-67 positive cells (A431 and BxPC3 xenograft): reduced the percentage of Ki-67 positive cells across the entire tumor section
tumor cell density and necrotic area (IHC) (A431 and BxPC3 xenograft): markedly reduced the tumor cell density and increased the area of necrotic acellular debris within the tumors
inhibition of EGFR phosphorylation (EGFR [7]; A431, BxPC3, HT-29, lowest antibody concentration tested): Greater than 70%
EGFR phosphorylation (Western blot) (EGFR [7]; A431 cells): inhibits EGFR phosphorylation
phosphorylation of EGFR (KIRA) (EGFR [8]): marked decrease in phosphorylation of EGFR

IMC-1121B: fully human monoclonal (IgG1) anti-VEGFR-2 (flk-1) antibody
optimal pH [9]: 6.0
optimal buffer [10]: histidine at pH 6.0

IMC-A12: fully human IgG1/λ monoclonal antibody binding insulin-like growth factor-I receptor (IGF-IR)
percent loss and percent monomer as a function of pH [11]: Percent loss was least and percent monomer was highest between pH 6.0-7.0
percent monomer ([12]; −20° C. and −70° C. up to 3 months, PBS and Citrate formulations): The percent monomer did not change with time in either formulation
percent monomer as a function of pH ([12]; −20° C. and −70° C., three weeks): The pH did not have significant effect on percent monomer
rate of monomer change [13]: smallest at lowest IMC-A12 concentration and at highest trehalose to IMC-A12 ratio
secondary structure (circular dichorism) [14]: Secondary structure of IMC-A12 was not altered because of lyophilization
particulate counts =10 μm/mL [15, 17]: 38.67 mL⁻¹
particulate counts =25 μm/mL [15, 17]: 0.33 mL⁻¹
particulate counts =50 μm/mL [15, 17]: 0.00 mL⁻¹
particulate counts =10 μm/mL [15, 18]: 26.33 mL⁻¹
particulate counts =25 μm/mL [15, 18]: 1.67 mL⁻¹
particulate counts =50 μm/mL [15, 18]: 0.00 mL⁻¹
particulate counts (HIAC) ([15]; before and after lyophilization, 5 mg/mL): The particulate counts did not changed significantly

LY2439821: humanized anti-IL-17 (IL-17A) monoclonal antibody
koff rate from human IL-17 (human IL-17 [16]): less than 2×10^−5 s^−1
Kd (human IL-17 [16]; read-out: binding affinity (KD) for human IL-17): < 0.007 nM

B1: LY2127399: human monoclonal antibody that specifically binds to TNFSF13b polypeptides (antibody, chains of the INN, looked up, V domains shown)
VH: QVQLQQWGAGLLKPSETLSLTCAVYGGSFSGYYWSWIRQPPGKGLEWIGEINHSGSTNYNPSLKSRVTISVDTSKNQFSLKLSSVTAADTAVYYCARGYYDILTGYYYYFDYWGQGTLVTVSS
VL: EIVLTQSPATLSLSPGERATLSCRASQSVSRYLAWYQQKPGQAPRLLIYDASNRATGIPARFSGSGSGTDSTLTISSLEPEDFAVYYCQQRSNWPRTFGQGTKVEIK
Kd (hTNFSF13b): ≤ 10 nM
